# Laboratory results taken from patent publication US20220332804A1 (CSL INNOVATION, published 2022).
# Where a chain is given by its changes, count along the chain named.
# B1: RF16-242 (antibody, human IgG4 S228P, lambda, V domains shown)
# VH: EVQLLQSGAEVKKPGESLKISCKGSGYSFTSYWIGWVRQMPGKGLEWMGIIYPGDSDTRYSPSFQGQVTISADKSISTAYLQWSSLKASDTAMYYCARRGHYGDYFDYWGQGTLVTVSS
# VL: SYELTQPPSVSVSPGQTARITCSGDALPKKYAYWYHQKSGQAPVLVIYEDRRRPSEIPERFSGSSSGTMATLTITGAQVEDEGVYFCYSRDRAGNQRVFGGGTQLTVLG
# notes: pH-dependent anti-C2 antibody from a phage display library
# What was measured:
# Assay in all cases: SPR, KD relative to WT C2;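 note: biacore SPR at 37 °C, anti-C2 mAbs captured on anti-human IgG chips with alanine or serine point mutants of C2 as analyte, KD from 1:1 fit compared with wild-type C2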
# human C2 S473A = target: T1, human C2 S473A (human, UniProt P06681 21-752)
# T1 sequence: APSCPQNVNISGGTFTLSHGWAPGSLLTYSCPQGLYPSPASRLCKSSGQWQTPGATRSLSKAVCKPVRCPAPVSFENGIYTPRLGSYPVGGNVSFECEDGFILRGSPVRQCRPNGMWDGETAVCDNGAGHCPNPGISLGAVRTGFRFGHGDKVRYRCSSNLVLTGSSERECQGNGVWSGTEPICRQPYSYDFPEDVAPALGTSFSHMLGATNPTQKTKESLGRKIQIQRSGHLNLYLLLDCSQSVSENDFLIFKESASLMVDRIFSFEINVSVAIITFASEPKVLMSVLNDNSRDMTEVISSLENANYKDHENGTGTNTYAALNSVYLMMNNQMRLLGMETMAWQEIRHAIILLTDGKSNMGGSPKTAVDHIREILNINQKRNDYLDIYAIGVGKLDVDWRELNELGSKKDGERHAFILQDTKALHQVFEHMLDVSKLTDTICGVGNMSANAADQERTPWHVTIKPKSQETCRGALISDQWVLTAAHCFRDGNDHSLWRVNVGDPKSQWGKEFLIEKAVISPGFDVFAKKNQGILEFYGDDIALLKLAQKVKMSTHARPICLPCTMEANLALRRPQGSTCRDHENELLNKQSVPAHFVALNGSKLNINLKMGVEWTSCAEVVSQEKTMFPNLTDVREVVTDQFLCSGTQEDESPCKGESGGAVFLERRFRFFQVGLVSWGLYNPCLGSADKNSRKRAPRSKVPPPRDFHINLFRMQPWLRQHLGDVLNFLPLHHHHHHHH
# human C2 S428A = target: T2, human C2 S428A (human, UniProt P06681 21-752)
# T2 sequence: T1 sequence with S408A, A453S
# human C2 N467A = target: T3, human C2 N467A (human, UniProt P06681 21-752)
# T3 sequence: T1 sequence with N447A, A453S
# human C2 L271A = target: T4, human C2 L271A (human, UniProt P06681 21-752)
# T4 sequence: T1 sequence with L251A, A453S
binder,measurement,setting,value
B1,Fold diff,human C2 S473A,2 fold
same,Fold diff,human C2 S428A,3 fold
same,Fold diff,human C2 N467A,2 fold
same,Fold diff,human C2 L271A,1 fold
